# Data as given in patent publication US20250320281A1.
# Columns and labels:
# Assay in all cases: cell-based or functional assay
# [1] = target: HIV-1 Env of isolate 92RW008 (subtype A) (HIV-1)
# [2] = target: HIV-1 Env of isolate 92TH021 (subtype AE) (HIV-1)
# [3] = target: HIV-1 Env of isolate 92UG031 (subtype A) (HIV-1)
# [4] = target: HIV-1 Env of isolate 92UG037 (subtype A) (HIV-1)
# [5] = target: HIV-1 Env of isolate 92WR009 (subtype A) (HIV-1)
# [6] = target: HIV-1 Env of isolate 92WR020 (subtype A) (HIV-1)
# [7] = target: HIV-1 Env of isolate 92WR021 (subtype A) (HIV-1)
# [8] = target: HIV-1 Env of isolate 92WR024 (subtype A) (HIV-1)
# [9] = target: HIV-1 Env of isolate 92WR026 (subtype A) (HIV-1)
# [10] = target: HIV-1 Env of isolate 93UG077 (subtype A) (HIV-1)
# [11] = target: HIV-1 Env of isolate 93WR029 (subtype A) (HIV-1)
# [12] = target: HIV-1 Env of isolate 94 KE 105 (subtype AC) (HIV-1)
# [13] = target: HIV-1 Env of isolate 94UG103 (subtype A) (HIV-1)
# [14] = target: HIV-1 Env of isolate CMU02 (subtype AE) (HIV-1)
# [15] = target: HIV-1 Env of isolate MGRM-AE-001 (subtype AE) (HIV-1)
# [16] = target: HIV-1 Env of isolate MGRM-AE-002 (subtype AE) (HIV-1)
# [17] = target: HIV-1 Env of isolate MGRM-AE-003 (subtype AE) (HIV-1)
# [18] = target: HIV-1 Env of isolate MGRM-AE-004 (subtype AE) (HIV-1)
# [19] = target: HIV-1 Env of isolate MGRM-AE-005 (subtype AE) (HIV-1)
# [20] = target: HIV-1 Env of isolate MGRM-AE-006 (subtype AE) (HIV-1)
# [21] = target: HIV-1 Env of isolate MGRM-G-001 (HIV-1)
# [22] = target: HIV-1 Env of isolate MGRM-G-004 (HIV-1)
# [23] = target: HIV-1 Env of isolate MGRM-G-006 (HIV-1)
# [24] = target: HIV-1 Env of isolate MGRM-G-009 (HIV-1)
# [25] = target: HIV-1 Env of isolate MGRM-G-011 (HIV-1)
# [26] = target: HIV-1 Env of isolate MGRM-G-013 (HIV-1)
# [27] = target: HIV-1 Env of isolate MGRM-G-014 (HIV-1)
# [28] = target: HIV-1 Env of isolate MGRM-G-015 (HIV-1)
# [29] = target: HIV-1 Env of isolate MGRM-G-016 (HIV-1)
# [30] = target: HIV-1 Env of isolate MGRM-G-017 (HIV-1)
# [31] = target: HIV-1 Env of isolate MGRM-G-019 (HIV-1)
# [32] = target: HIV-1 Env of isolate MGRM-G-024 (HIV-1)
# [33] = target: HIV-1 Env of isolate MGRM-G-025 (HIV-1)
# [34] = target: HIV-1 Env of isolate MGRM-G-027 (HIV-1)
# [35] = target: HIV-1 Env of isolate MGRM-G-028 (HIV-1)
# [36] = target: HIV-1 Env of isolate VLGCA1 (subtype A) (HIV-1)
# [37] = target: HIV-1 envelope glycoprotein (Env) of isolate 6535.3 (HIV-1)
# [38] = target: HIV-1 envelope glycoprotein (Env) of isolate 92BR020 (HIV-1)
# [39] = target: HIV-1 envelope glycoprotein (Env) of isolate 93TH305 (HIV-1)
# [40] = target: HIV-1 envelope glycoprotein (Env) of isolate APV_13 (HIV-1)
# [41] = target: HIV-1 envelope glycoprotein (Env) of isolate APV_17 (HIV-1)
# [42] = target: HIV-1 envelope glycoprotein (Env) of isolate APV_6 (HIV-1)
# [43] = target: HIV-1 envelope glycoprotein (Env) of isolate CAAN.A2 (HIV-1)
# [44] = target: HIV-1 envelope glycoprotein (Env) of isolate JR-FL (HIV-1)
# [45] = target: HIV-1 envelope glycoprotein (Env) of isolate MGRM-Chronic-B-001 (HIV-1)
# [46] = target: HIV-1 envelope glycoprotein (Env) of isolate MGRM-Chronic-B-002 (HIV-1)
# [47] = target: HIV-1 envelope glycoprotein (Env) of isolate MGRM-Chronic-B-003 (HIV-1)
# [48] = target: HIV-1 envelope glycoprotein (Env) of isolate MGRM-Chronic-B-004 (HIV-1)
# [49] = target: HIV-1 envelope glycoprotein (Env) of isolate MGRM-Chronic-B-008 (HIV-1)
# [50] = target: aMLV envelope (negative control pseudovirus)
# 4995_P16 (PGT-145) (antibody), sequence (VH): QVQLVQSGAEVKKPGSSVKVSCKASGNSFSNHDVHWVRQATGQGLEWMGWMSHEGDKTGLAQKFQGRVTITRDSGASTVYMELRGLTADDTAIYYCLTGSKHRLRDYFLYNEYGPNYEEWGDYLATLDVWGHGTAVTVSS
# 4995_P16 (PGT-145) (antibody), sequence (VL): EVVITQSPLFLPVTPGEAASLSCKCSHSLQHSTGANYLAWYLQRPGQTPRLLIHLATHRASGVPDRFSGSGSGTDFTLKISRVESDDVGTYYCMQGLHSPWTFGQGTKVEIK
substance,measurement,setting,value
4995_P16 (PGT-145) (antibody),"IC50 (µg/mL), pseudovirus neutralization",[1],0.4 µg/mL
same,"IC50 (µg/mL), pseudovirus neutralization",[2],0.013 µg/mL
same,"IC50 (µg/mL), pseudovirus neutralization",[3],3.22 µg/mL
same,"IC50 (µg/mL), pseudovirus neutralization",[4],3.15 µg/mL
same,"IC50 (µg/mL), pseudovirus neutralization",[5],0.026 µg/mL
same,"IC50 (µg/mL), pseudovirus neutralization",[6],0.997 µg/mL
same,"IC50 (µg/mL), pseudovirus neutralization",[7],1.62 µg/mL
same,"IC50 (µg/mL), pseudovirus neutralization",[8],0.069 µg/mL
same,"IC50 (µg/mL), pseudovirus neutralization",[9],1.45 µg/mL
same,"IC50 (µg/mL), pseudovirus neutralization",[10],> 50 µg/mL
same,"IC50 (µg/mL), pseudovirus neutralization",[11],> 50 µg/mL
same,"IC50 (µg/mL), pseudovirus neutralization",[12],1.32 µg/mL
same,"IC50 (µg/mL), pseudovirus neutralization",[13],0.331 µg/mL
same,"IC50 (µg/mL), pseudovirus neutralization",[14],1.43 µg/mL
same,"IC50 (µg/mL), pseudovirus neutralization",[15],20.9 µg/mL
same,"IC50 (µg/mL), pseudovirus neutralization",[16],1.87 µg/mL
same,"IC50 (µg/mL), pseudovirus neutralization",[17],0.552 µg/mL
same,"IC50 (µg/mL), pseudovirus neutralization",[18],0.006 µg/mL
same,"IC50 (µg/mL), pseudovirus neutralization",[19],0.967 µg/mL
same,"IC50 (µg/mL), pseudovirus neutralization",[20],> 50 µg/mL
same,"IC50 (µg/mL), pseudovirus neutralization",[21],0.028 µg/mL
same,"IC50 (µg/mL), pseudovirus neutralization",[22],> 50 µg/mL
same,"IC50 (µg/mL), pseudovirus neutralization",[23],0.286 µg/mL
same,"IC50 (µg/mL), pseudovirus neutralization",[24],0.982 µg/mL
same,"IC50 (µg/mL), pseudovirus neutralization",[25],0.028 µg/mL
same,"IC50 (µg/mL), pseudovirus neutralization",[26],> 50 µg/mL
same,"IC50 (µg/mL), pseudovirus neutralization",[27],0.144 µg/mL
same,"IC50 (µg/mL), pseudovirus neutralization",[28],10.5 µg/mL
same,"IC50 (µg/mL), pseudovirus neutralization",[29],0.081 µg/mL
same,"IC50 (µg/mL), pseudovirus neutralization",[30],0.205 µg/mL
same,"IC50 (µg/mL), pseudovirus neutralization",[31],0.041 µg/mL
same,"IC50 (µg/mL), pseudovirus neutralization",[32],0.06 µg/mL
same,"IC50 (µg/mL), pseudovirus neutralization",[33],> 50 µg/mL
same,"IC50 (µg/mL), pseudovirus neutralization",[34],0.433 µg/mL
same,"IC50 (µg/mL), pseudovirus neutralization",[35],0.046 µg/mL
same,"IC50 (µg/mL), pseudovirus neutralization",[36],8.01 µg/mL
same,"IC50 (µg/mL), pseudovirus neutralization",[37],> 50 µg/mL
same,"IC50 (µg/mL), pseudovirus neutralization",[38],1.05 µg/mL
same,"IC50 (µg/mL), pseudovirus neutralization",[39],0.032 µg/mL
same,"IC50 (µg/mL), pseudovirus neutralization",[40],0.337 µg/mL
same,"IC50 (µg/mL), pseudovirus neutralization",[41],0.488 µg/mL
same,"IC50 (µg/mL), pseudovirus neutralization",[42],0.104 µg/mL
same,"IC50 (µg/mL), pseudovirus neutralization",[43],7.08 µg/mL
same,"IC50 (µg/mL), pseudovirus neutralization",[44],30.4 µg/mL
same,"IC50 (µg/mL), pseudovirus neutralization",[45],3.22 µg/mL
same,"IC50 (µg/mL), pseudovirus neutralization",[46],3.67 µg/mL
same,"IC50 (µg/mL), pseudovirus neutralization",[47],0.045 µg/mL
same,"IC50 (µg/mL), pseudovirus neutralization",[48],0.023 µg/mL
same,"IC50 (µg/mL), pseudovirus neutralization",[49],1.9 µg/mL
same,"IC50 (µg/mL), pseudovirus neutralization",[50],> 50 µg/mL
